Where no end group is shown, it is not given here. The star is where a group is joined. biotin = biotin label attached through an aminohexanoic acid linker; Biotin = O=C1N[C@H]2[C@H](CS[C@H]2CCCCC(=O)*)N1; Ahx = NCCCCCC(=O)O
B1: F5P13-TR-CTP, N-terminally extended with GGGGS and N-terminally biotin-labeled (peptide)
peptide: {biotin-Ahx}-GGGGSRPFLFPFLFYRPFLFPFLFY
B2: P13-CTP, N-terminally extended with GGGGS and N-terminally biotin-labeled (peptide)
peptide: {biotin-Ahx}-GGGGSRLLDTNRPFLFY
B3: F4P6-TR-CTP, N-terminally extended with GGGGS and N-terminally biotin-labeled (peptide)
peptide: {biotin-Ahx}-GGGGSRPFLPFLPY
B4: F5P6-TR-CTP, N-terminally extended with GGGGS and N-terminally biotin-labeled (peptide)
peptide: {biotin-Ahx}-GGGGSRPFLPFLPYRPFLPFLPY
B5: F4P13-TR-CTP, N-terminally extended with GGGGS and N-terminally biotin-labeled (peptide)
peptide: {biotin-Ahx}-GGGGSRPFLFPFLFY
B6: P6-CTP, N-terminally extended with GGGGS and N-terminally biotin-labeled (peptide)
peptide: {biotin-Ahx}-GGGGSRLLDTNRPFLPY
B7: MF4P13-TR-CTP-cBiotin (F4P13-TR-CTP with a methionine added at its N-terminus, C-terminal GGGGSK, biotin on the C-terminal lysine) (peptide)
peptide: MRPFLFPFLFYGGGGSK(Biotin)
B8: F4P13-TR-CTP with C-terminal biotin (extended at the C-terminus with GGGGSK, biotin on the C-terminal lysine) (peptide)
peptide: RPFLFPFLFYGGGGSK(Biotin)
B9: P13-CTP-cBiotin (P13-CTP extended at the C-terminus with GGGGSK, biotin on the C-terminal lysine) (peptide)
peptide: RLLDTNRPFLFYGGGGSK(Biotin)

What follows are binders tested against peptide-binding domain of GRP78 (GRP78-PBD, amino acids 421-639) (UniProt P11021) (assay: SPR (BIACORE T200), N-biotin peptide on streptavidin CM5 chip, GRP78-PBD analyte).
Chain of peptide-binding domain of GRP78 (GRP78-PBD, amino acids 421-639) (P11021 421-639 limits assumed, form in doubt): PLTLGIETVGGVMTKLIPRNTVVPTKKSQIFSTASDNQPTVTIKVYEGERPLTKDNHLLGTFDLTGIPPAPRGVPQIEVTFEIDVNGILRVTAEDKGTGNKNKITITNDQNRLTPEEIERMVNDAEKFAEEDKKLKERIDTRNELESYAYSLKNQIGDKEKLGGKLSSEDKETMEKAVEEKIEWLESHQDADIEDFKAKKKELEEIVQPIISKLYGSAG

| Binder | Kd [nM] | koff [s⁻¹] | kon [M⁻¹ s⁻¹] |
| --- | --- | --- | --- |
| B1 | 610 | 0.0012 | 1900 |
| B2 | 2700 | 0.0034 | 1200 |
| B3 | 1200 | 0.0028 | 2300 |
| B4 | 1000 | 0.00091 | 890 |
| B5 | 2100 | 0.0017 | 790 |
| B6 | 1900 | 0.003 | 1500 |

The binders below were run against peptide-binding domain of GRP78 (GRP78-PBD, amino acids 421-639) (UniProt P11021) (assay: SPR (BIACORE T200), C-terminal biotin peptide on streptavidin CM5 chip, GRP78-PBD analyte).

| Binder | Kd [nM] | koff [s⁻¹] | kon [M⁻¹ s⁻¹] |
| --- | --- | --- | --- |
| B7 | 1200 | 0.00029 | 240 |
| B8 | 660 | 0.0012 | 1800 |
| B9 | 2700 | 0.002 | 970 |

From patent publication US20210253636A1
